Source: PMC12657230

Target: ECOR31 mCpol (minimal CRISPR polymerase) with residual ENLYFQ cleavage site (E. coli ECOR31)
Assay: SEC; HiLoad 16/600 Superdex 200 pg, 20 mM Tris-HCl pH 8.0, 500 mM KCl, 10% glycerol, 1 mM TCEP; elution compared with a molecular weight standard

## ECOR31 mCpol (minimal CRISPR polymerase) with residual ENLYFQ cleavage site (enzyme)
  stoichiometry N: 2
